Substitutions are numbered along the chain they refer to. In names and notes the source's numbering stands.
T1: EsCas13d, nuclease-dead (Eubacterium siraeum, UniProt B0MS50, R295A;H300A;R849A;H854A)
T1 sequence: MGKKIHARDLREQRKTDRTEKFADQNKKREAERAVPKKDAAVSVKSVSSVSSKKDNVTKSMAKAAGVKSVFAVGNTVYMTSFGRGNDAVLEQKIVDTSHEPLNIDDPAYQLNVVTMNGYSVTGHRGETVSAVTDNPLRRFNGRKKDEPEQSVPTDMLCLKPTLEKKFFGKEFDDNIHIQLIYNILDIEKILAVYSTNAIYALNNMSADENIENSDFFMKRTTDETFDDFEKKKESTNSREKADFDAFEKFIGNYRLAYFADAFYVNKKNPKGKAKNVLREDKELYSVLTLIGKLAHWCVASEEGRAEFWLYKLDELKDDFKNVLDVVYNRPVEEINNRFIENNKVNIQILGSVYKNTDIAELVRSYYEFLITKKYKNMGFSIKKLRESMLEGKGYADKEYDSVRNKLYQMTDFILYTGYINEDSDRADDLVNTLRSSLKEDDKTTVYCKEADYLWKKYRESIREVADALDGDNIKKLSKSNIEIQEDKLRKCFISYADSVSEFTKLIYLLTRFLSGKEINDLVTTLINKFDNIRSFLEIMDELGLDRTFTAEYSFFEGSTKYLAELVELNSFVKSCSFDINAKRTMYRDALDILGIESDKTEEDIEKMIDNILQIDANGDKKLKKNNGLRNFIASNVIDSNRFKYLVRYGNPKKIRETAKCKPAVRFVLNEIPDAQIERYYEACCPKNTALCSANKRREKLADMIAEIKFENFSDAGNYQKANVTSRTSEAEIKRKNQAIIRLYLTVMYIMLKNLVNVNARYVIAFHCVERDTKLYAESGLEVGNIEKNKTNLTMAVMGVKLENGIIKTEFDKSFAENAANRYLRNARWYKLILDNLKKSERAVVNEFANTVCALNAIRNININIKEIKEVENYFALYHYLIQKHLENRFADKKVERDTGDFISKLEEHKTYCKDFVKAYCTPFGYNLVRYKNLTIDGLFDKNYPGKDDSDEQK

B1: target 1 insU 3' of 14,insG 3' of 9 (mixed)
RNA 1: CACCCGUGCAAAAAUGCAGGGGUCUAAAACUGAGCGGAUAACCUCUCUAUGG
RNA 2: GGGAAUGGAUCCACAUCUACGAAUUCGUACCAUAGAGAUGGUUAGUCCGCUCACCGAGAUCGGAAGAGCACACGU
B2: target 1 insU 3' of 4,insU 3' of 4 (mixed)
RNA 1: B1 RNA 1
RNA 2: B1 RNA 2 with U39G, G41U, U43A, A44U, G45C, U46C, C47G, G49U, C50U
B3: target 1 insA 3' of 8,insC 3' of 5 (mixed)
RNA 1: B1 RNA 1
RNA 2: B1 RNA 2 with U39G, G41U, U43A, A44U, G45A, U46C, C48G, G49C
B4: target 1 A16G,A18U (mixed)
RNA 1: B1 RNA 1
RNA 2: GGGAAUGGAUCCACAUCUACGAAUUCGUACCAUUGGGAGGUUAUCCGCUCACCGAGAUCGGAAGAGCACACGU
B5: target 1 insG 3' of 11,insU 3' of 6 (mixed)
RNA 1: B1 RNA 1
RNA 2: B1 RNA 2 with U39G, G41U, U42G, G45U, U46C, C48U
B6: target 1 A9G,U10A (mixed)
RNA 1: B1 RNA 1
RNA 2: B4 RNA 2 with U34A, G36A, U42A, A43G
B7: target 1 A1C,U8G (mixed)
RNA 1: B1 RNA 1
RNA 2: B4 RNA 2 with U34A, G36A, U44G, A51C
B8: target 1 insU 3' of 22,insU 3' of 20 (mixed)
RNA 1: B1 RNA 1
RNA 2: GGGAAUGGAUCCACAUCUACGAAUUCGUACUCAUUAGAGAGGUUAUCCGCUCACCGAGAUCGGAAGAGCACACGU
B9: target 1 insA 3' of 10,insA 3' of 10 (mixed)
RNA 1: B1 RNA 1
RNA 2: B1 RNA 2 with U39G, G41U, U43A, G45A
B10: target 1 C4G,U19A (mixed)
RNA 1: B1 RNA 1
RNA 2: B4 RNA 2 with U33A, U34A, G36A, C48G
B11: target 1 insA 3' of 19,insA 3' of 6 (mixed)
RNA 1: B1 RNA 1
RNA 2: B1 RNA 2 with G35A, A36G, G37A, A38G, U39A, G45U, U46C, C48A
B12: target 1 insG 3' of 9,insG 3' of 6 (mixed)
RNA 1: B1 RNA 1
RNA 2: B1 RNA 2 with U39G, G41U, U43A, A44G, G45U, U46C, C48G
B13: target 1 insG 3' of 3,insG 3' of 3 (mixed)
RNA 1: B1 RNA 1
RNA 2: GGGAAUGGAUCCACAUCUACGAAUUCGUACCAUAGAGAGGUUAUCCGCUGGCACCGAGAUCGGAAGAGCACACGU
B14: target 1 insU 3' of 21,insA 3' of 12 (mixed)
RNA 1: B1 RNA 1
RNA 2: B8 RNA 2 with U31C, C32U, U35A, A36G, G37A, A38G, G39A, A40G, G42A
B15: target 1 G12U,G13C (mixed)
RNA 1: B1 RNA 1
RNA 2: B4 RNA 2 with U34A, G36A, G39C, G40U
B16: target 1 U11G,G15A (mixed)
RNA 1: B1 RNA 1
RNA 2: B4 RNA 2 with U34A, G36A, G37A, U41G
B17: target 1 A9C,A20U (mixed)
RNA 1: B1 RNA 1
RNA 2: B4 RNA 2 with A32U, U34A, G36A, A43C
B18: target 1 G5C,G17U (mixed)
RNA 1: B1 RNA 1
RNA 2: B4 RNA 2 with U34A, G35U, G36A, G47C
B19: target 1 insU 3' of 21,insG 3' of 20 (mixed)
RNA 1: B1 RNA 1
RNA 2: B8 RNA 2 with U31C, C32U, U34G
B20: target 1 C2A,A20U (mixed)
RNA 1: B1 RNA 1
RNA 2: B4 RNA 2 with A32U, U34A, G36A, C50A
B21: target 1 insC 3' of 18,insG 3' of 6 (mixed)
RNA 1: B1 RNA 1
RNA 2: B1 RNA 2 with G35C, A36G, G37A, A38G, U39A, G45U, U46C, C48G
B22: target 1 insC 3' of 15,insA 3' of 7 (mixed)
RNA 1: B1 RNA 1
RNA 2: B1 RNA 2 with A38C, U39A, G45U, U46C, C47A
B23: target 1 insG 3' of 14,insU 3' of 5 (mixed)
RNA 1: B1 RNA 1
RNA 2: B1 RNA 2 with U39G, G45U, U46C, C48G, G49U
B24: target 1 complement block 4-14 (mixed)
RNA 1: B1 RNA 1
RNA 2: GGGAAUGGAUCCACAUCUACGAAUUCGUACCAUAGAGUCCAAUAGGCGUCACCGAGAUCGGAAGAGCACACGU
B25: target 1 U3C,U11C (mixed)
RNA 1: B1 RNA 1
RNA 2: B4 RNA 2 with U34A, G36A, U41C, U49C
B26: target 1 insG 3' of 11,insA 3' of 5 (mixed)
RNA 1: B1 RNA 1
RNA 2: B1 RNA 2 with U39G, G41U, U42G, G45U, U46C, C48G, G49A
B27: target 1 insU 3' of 17,insU 3' of 2 (mixed)
RNA 1: B1 RNA 1
RNA 2: GGGAAUGGAUCCACAUCUACGAAUUCGUACCAUAGUAGAGGUUAUCCGCUCUACCGAGAUCGGAAGAGCACACGU
B28: target 1 insU 3' of 14,insC 3' of 9 (mixed)
RNA 1: B1 RNA 1
RNA 2: B1 RNA 2 with G45C
B29: target 1 U10A,G17U (mixed)
RNA 1: B1 RNA 1
RNA 2: B4 RNA 2 with U34A, G35U, G36A, U42A
B30: target 1 del3,del13 (mixed)
RNA 1: B1 RNA 1
RNA 2: GGGAAUGGAUCCACAUCUACGAAUUCGUACCAUAGAGAGUUAUCCGCCACCGAGAUCGGAAGAGCACACGU
B31: target 1 U8C,U10G (mixed)
RNA 1: B1 RNA 1
RNA 2: B4 RNA 2 with U34A, G36A, U42G, U44C
B32: target 1 insU 3' of 6,insA 3' of 3 (mixed)
RNA 1: B1 RNA 1
RNA 2: B13 RNA 2 with G47U, C48G, U49C, G50U, G51A
B33: target 1 C7A,A18U (mixed)
RNA 1: B1 RNA 1
RNA 2: B4 RNA 2 with G36A, C45A

Each binder was assayed against T1, EsCas13d, nuclease-dead (assay: crRNA (strand 1, pre-loaded); Mg2+; 40 mM Tris-HCl pH 7.5, 150 mM NaCl, 6 mM MgCl2, 1 mM DTT, 0.1% Tween-20, 0.2 mg/ml BSA; 25 C; 10 min per concentration, then washed). Settings: tags: His6-TwinStrep-SUMO cleaved; N-terminal SNAP kept (SNAP-Surface 488); label: 3' end held by stalled T7 RNA polymerase.

Binder	Kd
B1	28.2 ± 2.9 nM
B2	9.4 ± 0.5 nM
B3	9.4 ± 0.6 nM
B4	86 ± 13 nM
B5	62 ± 8 nM
B6	15.5 ± 0.6 nM
B7	22.4 ± 1.7 nM
B8	63 ± 6 nM
B9	7.81 ± 0.3 nM
B10	51 ± 18 nM
B11	23.2 ± 0.9 nM
B12	11.2 ± 1.2 nM
B13	5.5 ± 0.5 nM
B14	63 ± 9 nM
B15	17.5 ± 1.3 nM
B16	59 ± 7 nM
B17	80 ± 40 nM

Binder	Kd
B18	28.1 ± 2 nM
B19	40 ± 11 nM
B20	30.1 ± 1.5 nM
B21	58 ± 10 nM
B22	12.6 ± 1 nM
B23	29.6 ± 2.1 nM
B24	63 ± 31 nM
B25	51 ± 8 nM
B26	26.5 ± 2.9 nM
B27	15.1 ± 2.2 nM
B28	46 ± 4 nM
B29	37.2 ± 3.2 nM
B30	7.9 ± 0.4 nM
B31	13.5 ± 0.9 nM
B32	8.07 ± 0.3 nM
B33	36.4 ± 2.8 nM

— PMC10786891, “Massively parallel profiling of RNA-targeting CRISPR-Cas13d”
